Assay: 35S pulse-chase, HA immunoprecipitation from lysate and media
Conditions: glycan lost; control: wild type Cab45-HA

B1: Cab45: Cab45-N40G (protein)
parent chain: MVWPWVAMASRWGPLIGLAPCCLWLLGAVLLMDASARPANHSSTRERVANREENEILPPDHLNGVKLEMDGHLNRGFHQEVFLGKDLGGFDEDAEPRRSRRKLMVIFSKVDVNTDRKISAKEMQRWIMEKTAEHFQEAMEESKTHFRAVDPDGDGHVSWDEYKVKFLASKGHSEKEVADAIRLNEELKVDEETQEVLENLKDRWYQADSPPADLLLTEEEFLSFLHPEHSRGMLRFMVKEIVRDLDQDGDKQLSVPEFISLPVGTVENQQGQDIDDNWVKDRKKEFEELIDSNHDGIVTAEELESYMDPMNEYNALNEAKQMIAVADENQNHHLEPEEVLKYSEFFTGSKLVDYARSVHEEF
Q: With B1 as the protein, how does the expression_or_secretion read?
A: Its expression_or_secretion is “no change”.

Reference: publication PMC9351455
